The values that follow come from patent US20260374812 (published 2026).

Where no end group is shown, it is not given here.

The target in test [1] is T1, TTR40-49 (human).
T1 chain: TWEPFASGKT
The experiment in a line: ELISA.

In test [2] the target is T2, TTR34-54cyc (human, cyclic, disulfide between the two Cys in the poly-Gly linkers). Description: ELISA, ELISA-2. (In an ELISA, binding on a coated surface is turned into a signal by an enzyme label.)
Test [3] addresses T2, TTR34-54cyc. The experiment in a line: ELISA, ELISA-1.
The target of test [4] is T3, Biotin.TTR40-49 (human, not fully specified (N-terminus)).
T3 chain: TWEPFASGKT
Description: ELISA.

Test [5] concerns the target mis.WT-TTR (human). The experiment in a line: ELISA, ELISA-1.
Test [6] deals with mis.WT-TTR (human). The experiment in a line: ELISA, ELISA-2.

T2 sequence (chain, as listed by the source): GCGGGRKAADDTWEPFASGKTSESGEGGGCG

B1: NI-301.37F1 (antibody, V domains shown)
VH: QVQLQESGPGLVKPSETLSLTCSVSGGSIISRSSYWGWIRQPPGKGLEWIGGIYHSGNTYDNPSLKSRLTMSVDTSKNQFSLNLRSVTAADTAVYYCARIVPGGDAFDIWGQGTMVTVSS
VL: DIQMTQSPSSLSASVGDRVTIACRASQSVGTYLNWYQQKRGKAPKLLIFAASSLQSGVPSRFSGSGSGTDFTLTISSLQPEDFATYYCQQSYSSPPTFGQGTKVEIK
As usually defined, the EC50 is the concentration at which the effect is half-maximal. A higher EC50 goes with a need for much substance. Turning to B1, the binding result in test [1] and in test [4] was “no binding” in each case. The EC50 in test [2] came out at 0.66 nM; in test [3] it was 0.027 nM.

B2: NI-301.37F1 (antibody, V domains shown)
VH: B1 VH
VL: B1 VL
modifications: plasma-purified wild-type TTR, misfolded/aggregated at pH 3.0
Regarding B2, the figures for the EC50 in test [5] and in test [6] were 0.338 nM and 8.3 nM, respectively.
